B1: Regulator of chromosome condensation (Homo sapiens), P18754 (parent)
chain: MSPKRIAKRRSPPADAIPKSKKVKVSHRSHSTEPGLVLTLGQGDVGQLGLGENVMERKKPALVSIPEDVVQAEAGGMHTVCLSKSGQVYSFGCNDEGALGRDTSVEGSEMVPGKVELQEKVVQVSAGDSHTAALTDDGRVFLWGSFRDNNGVIGLLEPMKKSMVPVQVQLDVPVVKVASGNDHLVMLTADGDLYTLGCGEQGQLGRVPELFANRGGRQGLERLLVPKCVMLKSRGSRGHVRFQDAFCGAYFTFAISHEGHVYGFGLSNYHQLGTPGTESCFIPQNLTSFKNSTKSWVGFSGGQHHTVCMDSEGKAYSLGRAEYGRLGLGEGAEEKSIPTLISRLPAVSSVACGASVGYAVTKDGRVFAWGMGTNYQLGTGQDEDAWSPVEMMGKQLENRVVLSVSSGGQHTVLLVKDKEQS
partner: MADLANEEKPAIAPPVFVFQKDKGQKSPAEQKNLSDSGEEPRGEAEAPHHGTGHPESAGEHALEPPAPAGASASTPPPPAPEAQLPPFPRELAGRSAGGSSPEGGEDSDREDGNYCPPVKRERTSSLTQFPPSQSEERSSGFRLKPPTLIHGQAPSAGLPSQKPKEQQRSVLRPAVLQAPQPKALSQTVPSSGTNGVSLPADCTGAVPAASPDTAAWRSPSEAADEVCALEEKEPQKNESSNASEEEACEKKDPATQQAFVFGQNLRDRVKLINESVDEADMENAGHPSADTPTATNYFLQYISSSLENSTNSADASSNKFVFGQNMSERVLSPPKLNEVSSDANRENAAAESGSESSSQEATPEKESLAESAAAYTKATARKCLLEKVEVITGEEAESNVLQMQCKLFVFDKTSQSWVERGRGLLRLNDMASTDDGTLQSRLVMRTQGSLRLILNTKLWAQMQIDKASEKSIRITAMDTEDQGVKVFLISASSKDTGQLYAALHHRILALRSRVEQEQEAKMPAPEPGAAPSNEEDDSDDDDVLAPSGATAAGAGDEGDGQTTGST

Variants of: B1
Settings: with ranb3_human RANBP3, Q9H6Z4

effect of a mutation on the interaction | Variant
disrupting interaction | MSPKRIAKRRSPPADAIPKSKKVKVSHRSHSTEPGLVLTLGQGDVGQLGLGENVMERKKPALVSIPEDVVQAEAGGMHTVCLSKSGQVYSFGCNDEGALGRDTSVEGSEMVPGKVELQEKVVQVSAGDSHTAALTDDGRVFLWGSFRDNNGVIGLLEPMKKSMVPVQVQLDVPVVKVASGNAHLVMLTADGDLYTLGCGEQGQLGRVPELFANRGGRQGLERLLVPKCVMLKSRGSRGHVRFQDAFCGAYFTFAISHEGHVYGFGLSNYHQLGTPGTESCFIPQNLTSFKNSTKSWVGFSGGQHHTVCMDSEGKAYSLGRAEYGRLGLGEGAEEKSIPTLISRLPAVSSVACGASVGYAVTKDGRVFAWGMGTNYQLGTGQDEDAWSPVEMMGKQLENRVVLSVSSGGQHTVLLVKDKEQS [D182A]
